One assay deals with T1, HLA-A03.01 (human).
T1 construct: Purified class I MHC
Kind of assay: competition with radiolabeled reference peptide, purified MHC I. As for the experimental part: (§1) Peptides were incubated at varying concentrations with these complexes for 2 days, and the amount of remaining radiolabeled peptide bound to […] was measured using size exclusion gel-filtration.

Assay [1] deals with T2, HLA class I molecule A02.01.
T2 construct: Purified MHC class I complex; also called HLA-A02:01
Kind of assay: pMHC-I dissociation half-life, 125I-b2m. On the procedure: (§2) Briefly, synthetic genes encoding biotinylated MHC-I heavy and light chains are expressed in E. coli and purified from inclusion bodies using standard methods. […] These reactions are carried out in streptavidin coated microplates to bind the biotinylated MHC-I heavy chains to the surface and allow measurement of radiolabeled light chain to monitor complex formation. Dissociation is initiated by addition of higher concentrations of unlabeled light-chain and incubation at 37° C. Stability is defined as the length of time in hours it takes for half of the complexes to dissociate, as measured by scintillation counts.

Assay [2] shares this target. The assay can be described thus: competition with radiolabeled reference peptide on purified MHC I. As for the experimental part: as §1
The target of assay [3] is T3, HLA-A02.01 (human).
T3 construct: Purified class I MHC
Kind of assay: competition with radiolabeled reference peptide, purified MHC I. As for the experimental part: as §1

Assay [4] concerns the target T3, HLA-A02.01. Kind of assay: pMHC-I dissociation half-life, 125I-b2m. As for the experimental part: as §2

As to SLKKVPALKK (also called SMAP1(-1)), the IC50 in the assay with HLA-A03.01 was 9.6 nM.
As to KMRKKYAQK (also called THAP5(-1)), the IC50 with HLA-A03.01 is 5.7 nM.
Consider QTGVMICAYL (also called PTEN, R130Q), for which the “Stability (T1/2 (h))” value in assay [1] is 0 h. Further, the IC50 in assay [2] was found to be 9760 nM.
In the assay with HLA-A03.01, KSKKKETFKK (also called SEC63 (+1)) returned an IC50 of 39.6 nM.
Consider RVNTAWKTK (also called TFAM(+1)), for which the IC50 with HLA-A03.01 was determined as 8.6 nM.
AFSGEYIPTV (also called RAC1, P29S): the “Stability (T1/2 (h))” value in assay [1] was found to be 0 h. In assay [2], this molecule gave an IC50 of 781 nM.
In the assay with HLA-A03.01, HLQLKSCRRK (also called SMAP1(-1)) showed an IC50 of 96.9 nM.
Take KITEQEKDFL (also called PIK3CA, E542K): the “Stability (T1/2 (h))” value in assay [1] turned out to be 0 h. Further, the IC50 in assay [2] is 1400 nM.
In the assay with HLA-A02.01 [3], KKLMLLRLNL (also called SEC31A(-1)) came in with an IC50 of 289 nM.
In the assay with HLA-A02.01 [3], FVQGKDWGL (also called SPOP, F133L) returned an IC50 of 34 nM.
Take LLAFWDSQV (also called TP53, AAVG): in the assay with HLA-A02.01 [4], the “Stability (T1/2 (h))” value came to 12.8 h. The IC50 with HLA-A02.01 [3] was 68 nM.
For YLTKWPKFFL (also called XPOT(-1)), the IC50 in the assay with HLA-A02.01 [3] amounted to 42.9 nM.
Take QQSDLQPPA (also called MYC, E39D): the “Stability (T1/2 (h))” value in assay [1] came to 0 h. The molecule further returned an IC50 in assay [2] of 70 nM.
For RKISNWSLKK (also called SMAP1(-1)), in the assay with HLA-A03.01, the IC50 is 131 nM.
Regarding FVMSDTTYKI (also called TTK(-1)), the IC50 in the assay with HLA-A02.01 [3] is 62.4 nM.
As for ALNSEALSVV (also called TMPRSS2: ERG), the “Stability (T1/2 (h))” value with HLA-A02.01 [4] came out at 2.9 h.
Regarding YMCNSSCMGS (also called TP53, G245S), the “Stability (T1/2 (h))” value with HLA-A02.01 [4] turned out to be 0.8 h. The molecule further yielded an IC50 in the assay with HLA-A02.01 [3] of 81 nM.
In the assay with HLA-A03.01, RVNTAWKTKK (also called TFAM(+1)) came in with an IC50 of 2.3 nM.
In the case of LLSTPPLSPS (also called MYC, P57S), in assay [1], the “Stability (T1/2 (h))” value turned out to be 0 h. The IC50 in assay [2] is 1770 nM.
In the assay with HLA-A03.01, ITTVKATETK (also called SEC63 (+1)) came in with an IC50 of 1250 nM.
Turning to GLLAFWDSQV (also called TP53, AAVG), in the assay with HLA-A02.01 [4], the “Stability (T1/2 (h))” value came to 14.2 h. In the assay with HLA-A02.01 [3], this molecule showed an IC50 of 10 nM.
For the molecule KSKKKETFK (also called SEC63 (+1)), in the assay with HLA-A03.01, the IC50 turned out to be 74.3 nM.
FALCGFWQI (also called SLC35F5(-1)): the IC50 with HLA-A02.01 [3] was 0.4 nM.
On to LFVMSDTTYK (also called TTK(-1)), for which, in the assay with HLA-A03.01, the IC50 worked out at 749 nM.
With ALNSEALSV (also called TMPRSS2: ERG), the “Stability (T1/2 (h))” value with HLA-A02.01 [4] was 9.1 h. Also, in the assay with HLA-A02.01 [3], the half-maximal inhibitory concentration (IC50) was determined as 14 nM.
In the assay with HLA-A03.01, WSLKKVPALK (also called SMAP1(-1)) gave an IC50 of 94.9 nM.
For the molecule KTFEKKGEK (also called TTK(-1)), the IC50 with HLA-A03.01 came out at 32.2 nM.
For the molecule LLQEFDVQEA (also called NDRG1: ERG), the “Stability (T1/2 (h))” value in assay [1] is 2.5 h. In assay [2], this molecule displayed an IC50 of 45 nM.
Turning to VRLSSCVPVA (also called TGFBR2(-1)), in the assay with HLA-A02.01 [3], the IC50 is 1210 nM.
As to FSGEYIPTV (also called RAC1, P29S), the “Stability (T1/2 (h))” value in assay [1] worked out at 6.8 h. The molecule further registered a concentration for half-maximal inhibition (IC50) in assay [2] of 3 nM.
Take RLSSCVPVAL (also called TGFBR2(-1)): the IC50 with HLA-A02.01 [3] was found to be 54.2 nM.
Turning to KISNWSLKKV (also called SMAP1(-1)), the 50% inhibitory concentration (IC50) with HLA-A03.01 worked out at 115 nM.
The molecule SLVRLSSCV (also called TGFBR2(-1)) displayed an IC50 in the assay with HLA-A02.01 [3] of 29.9 nM.
TYTCAITTVK (also called SEC63 (+1)) showed an IC50 with HLA-A03.01 of 2360 nM.
With KRVNTAWKTK (also called TFAM(+1)), the IC50 in the assay with HLA-A03.01 amounted to 332 nM.
With VVPCEPPEV (also called TP53, Y220C), the “Stability (T1/2 (h))” value with HLA-A02.01 [4] came to 0.9 h.
As for ALMSAMTTS (also called TGFBR2(-1)), the IC50 with HLA-A02.01 [3] was found to be 139 nM.
LMLLRLNLRK (also called SEC31A(-1)): in the assay with HLA-A03.01, the IC50 came to 6 nM.
Regarding LQEFDVQEAL (also called NDRG1: ERG), in assay [1], the “Stability (T1/2 (h))” value was 0 h. In assay [2], this molecule displayed an IC50 of 50300 nM.

B1: IMSLWGLVS (peptide)
peptide: IMSLWGLVS
notes: also called NAB: STAT6 (variant 1 of Chmielecki et al.)
Take B1: in assay [1], the “Stability (T1/2 (h))” value worked out at 0 h. The molecule further showed an IC50 in assay [2] of 7320 nM.
For KSLVRLSSCV (also called TGFBR2(-1)), the IC50 with HLA-A02.01 [3] was 280 nM.
Turning to FELLPIPPL (also called MYC, T58I), in assay [1], the “Stability (T1/2 (h))” value stood at 0 h. Also, the IC50 in assay [2] was determined as 553 nM.
Turning to ALSEHCPTT (also called TP53, CSES), in the assay with HLA-A02.01 [4], the “Stability (T1/2 (h))” value came out at 27.3 h. The molecule also displayed an IC50 with HLA-A02.01 [3] of 79 nM.
In the assay with HLA-A03.01, AMTTSSSQKN (also called TGFBR2(-1)) came in with an IC50 of 2340 nM.
For the molecule YIIIEYCFYG (also called PDGFRa, T674I), the “Stability (T1/2 (h))” value in assay [1] worked out at 0 h. In addition, in assay [2], the IC50 was determined as 113 nM.
In turn, KSRQNHLQLK (also called SMAP1(-1)) gave an IC50 in the assay with HLA-A03.01 of 4.7 nM.
In the case of IIIEYCFYG (also called PDGFRa, T674I), the “Stability (T1/2 (h))” value in assay [1] was 1.2 h. This molecule displayed an IC50 in assay [2] of 16 nM.
VMSDTTYKI (also called TTK(-1)) returned an IC50 in the assay with HLA-A02.01 [3] of 19.6 nM.
Turning to NSFEVCVCA (also called TP53, R273C), the “Stability (T1/2 (h))” value with HLA-A02.01 [4] amounted to 0 h. The same molecule yielded an IC50 in the assay with HLA-A02.01 [3] of 2200 nM.
Turning to NSFEVHVCA (also called TP53, R273H), the “Stability (T1/2 (h))” value with HLA-A02.01 [4] was 0 h. Moreover, the IC50 in the assay with HLA-A02.01 [3] was 503 nM.
Turning to FVMSDTTYK (also called TTK(-1)), in the assay with HLA-A03.01, the IC50 came to 66.9 nM.
In the case of GLVDEQQEV (also called SF3B1, K700E), in the assay with HLA-A02.01 [4], the “Stability (T1/2 (h))” value is 7.4 h. The molecule further came in with an IC50 with HLA-A02.01 [3] of 44 nM.
Take GMNQRPILT (also called TP53, R248Q): the “Stability (T1/2 (h))” value with HLA-A02.01 [4] came to 0 h. For the same molecule, the IC50 with HLA-A02.01 [3] came out at 3030 nM.
The matching figures for GMNWRPILT (also called TP53, R248W): 0 h and 1130 nM.
Regarding KLMLLRLNLR (also called SEC31A(-1)), in the assay with HLA-A03.01, the IC50 was 48.4 nM.
On to QQQSDLQPPA (also called MYC, E39D), for which, in assay [1], the “Stability (T1/2 (h))” value came out at 0 h. In addition, in assay [2], the IC50 came out at 646 nM.
Turning to LLGRNSFEVC (also called TP53, R273C), in the assay with HLA-A02.01 [4], the “Stability (T1/2 (h))” value was 0 h. In addition, the IC50 in the assay with HLA-A02.01 [3] is 2080 nM.
Turning to MLLRLNLRK (also called SEC31A(-1)), the IC50 with HLA-A03.01 is 1.3 nM.
As for LVRLSSCVPV (also called TGFBR2(-1)), the IC50 with HLA-A02.01 [3] turned out to be 1240 nM.

The IC50 is the point on the concentration scale where inhibition reaches its midpoint. Lower therefore signals greater potency in that assay.

The record behind these values is patent US20220282217A1 (BIONTECH US, published 2022).
